Measured values from publication PMC7959165 (Molecular cell, 2020).

Molecular target: E. coli RNAP σ^70 (E. coli, UniProt P00579 1-613)
Sequence (P00579 whole entry): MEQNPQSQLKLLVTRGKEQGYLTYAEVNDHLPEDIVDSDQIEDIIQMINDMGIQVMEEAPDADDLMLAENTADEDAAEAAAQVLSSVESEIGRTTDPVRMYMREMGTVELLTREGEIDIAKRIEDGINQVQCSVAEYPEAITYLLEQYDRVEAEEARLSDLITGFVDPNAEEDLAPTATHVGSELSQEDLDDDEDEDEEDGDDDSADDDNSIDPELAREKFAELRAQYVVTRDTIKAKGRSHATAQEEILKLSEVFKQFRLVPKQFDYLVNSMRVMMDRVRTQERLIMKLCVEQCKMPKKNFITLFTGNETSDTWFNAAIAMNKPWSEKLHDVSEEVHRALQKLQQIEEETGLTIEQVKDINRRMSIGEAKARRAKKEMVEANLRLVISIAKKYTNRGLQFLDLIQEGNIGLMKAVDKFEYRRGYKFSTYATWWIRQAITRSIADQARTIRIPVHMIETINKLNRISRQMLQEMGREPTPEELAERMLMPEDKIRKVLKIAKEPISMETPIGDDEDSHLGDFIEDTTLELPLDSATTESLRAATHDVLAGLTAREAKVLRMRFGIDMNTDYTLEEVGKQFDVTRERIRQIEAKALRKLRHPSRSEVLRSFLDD

B1: E. coli stringent starvation protein A (EcSspA) (natural protein, UniProt P0ACA3 1-212, looked up)
chain: MAVAANKRSVMTLFSGPTDIYSHQVRIVLAEKGVSFEIEHVEKDNPPQDLIDLNPNQSVPTLVDRELTLWESRIIMEYLDERFPHPPLMPVYPVARGESRLYMHRIEKDWYTLMNTIINGSASEADAARKQLREELLAIAPVFGQKPYFLSDEFSLVDCYLAPLLWRLPQLGIEFSGPGAKELKGYMTRVFERDSFLASLTEAEREMRLGRS
B1: binds.
